Residue numbers refer to the chain shown, from its start.
B1: 82-1109A (antibody, IgG2b, V domains shown)
VH: QVQLQQSGVELAKPGSSVKISCKASGNTFTSNYITWIKQTPGQGLEYIGYINTGSGKTYYNEKFKGKATLTADKSSSTAFMQLSSLTPDDSAVYFCASLTGVDYFDDWGQGVMVTVSS
VL: DDIVLTQSPALAPSLGQRATISCRASQSVRMSGYNLMHWYQQKPGQQPKLLIYDASKLASGIPARFSGSGSGTDFTLTIDPVQSDDIATYYCQQSKDDPYTFGAGTKLELRR
B2: 50-0704C (antibody, IgG2b, V domains shown)
VH: EVQLVGSGGGLVQPGRSMKLSCEASGFTFSNHYMAWVRQAPTKGLEWVATISTGGGNTYYRDSVKGRFTISRDNARSTLSLQMDSLRSEDTATYYCARQDYSNYMGGFAYWGQGTLVTVSS
VL: QFVLTQPNSVSTNLGSTVKLSCTRSIGNIGNNYVNWYKQYEGRSPTTMIYRDDERPDGVPDRFSGSIDRSSNSALLTINSVQTEDEADYFCQSFSSGIFIFGGGTKLTVL
B3: 18-0211B (antibody, IgG2b, V domains shown)
VH: B2 VH with E1A, K43R, A75T, A97T, S102T
VL: B2 VL with M48L, E86G, K106T
B4: 89-1207D (antibody, IgG2b, V domains shown)
VH: B2 VH with T78I
VL: B2 VL with S80N, I98M
B5: 65-0810G (antibody, IgG2b, V domains shown)
VH: EVHLVESGGGLVQPGRSMKLSCTASGFTFNNYYMAWVRQAPTKGLEWVASISTGGGYTYYRDSVKGRFTISRDNTGNTLYLQMDSLRSEDTATYYCARCWELPYWGQGVMVTVSS
VL: QFVLTQPNSVSTNLGSTVKLSCRRSSGNIGNNYVNWYRQHEGRSPTTMIYRDDTRPDGVPNRFSGSIDRSSNSALLTINNVRPEDEAYYFCQSYSGSIYIFGGGTKLTVL
B6: 80-1104A (antibody, IgG2b, V domains shown)
VH: EVQLVETGGGLVQPGSSLKLSCSTSGFTFSETWMSWVRQAPGKGLEWVGLIKDKNSNYEANYAESVKGRFTISRDDSKRRVYLQMYTLRDQDTATYYCTSHEDFYYYSSYYFDYWGQGVMVTVSS
VL: DIVLTQSPATLSVTPGESVSLSCRASQGISTSIHWYQQKSNESPRLLIKYASQSMSGIPSRFSGSGSGTDFTLRINRVESEDFSVYYCQQSYNLPLTFGSGTKLEIKR
B7: 93-1310F (antibody, IgG2b, V domains shown)
VH: B6 VH with S23A, E31D, G49A, Y86F, Q117H
VL: B6 VL with E42G, M55I, S91T, N93S, K103R
B8: 37-0511F (antibody, IgG2b, V domains shown)
VH: EVHLQQSGAALVRPRASVKLSCKVSGDSISRYYVHFVKQRPGQGLEWIGRIDPEDDTTKYSEKFKNRATLTADASSDTASLILSGLTSDDTATYFCSTLTGLDYWGQGVMVTVSS
VL: DIQMTQSPPVLSTSVGDRVTLRCKPSQNVHSKLDWYQQKHGEAPKLLIYYTHNLQTGIPSRFSGSGSGTDYTLTISSLQPEDVATYYCFQYYSGWTFGGGTKLEMKR
B9: 53-0707E (antibody, IgG2b, V domains shown)
VH: B8 VH with H3Q, A10E, A16T, S30T, N66K, R67K, D77N, S80Y, L83F, D89E
VL: B8 VL with P25A
B10: 83-1110B (antibody, IgG2b, V domains shown)
VH: EVQLQQSGPEFVRPGTSVKFSCKVSGGSITSYFIHFVKQRPGQGLEWIGKIDPEDDSTKYGEKFKNKATLTADTSSNTAFLKLSSLTSEDTAIYFCTTLTGLDYWGQGVMVTVSS
VL: DIQMTQSPPVLSAAVGDRVTLSCKASRSLNKNLDWYQQKHGETPKLLIYHTHNLQTGIPSRFSGSGSDTDYTLTISSLQTEDVATYYCYQYHSGWTFGGGTRLELRR
B11: 64-0807A (antibody, IgG2b, V domains shown)
VH: EVQVVESGGGLVQPGRSMKLSCAALGFTFRDYYMAWVRQTPTKGLEWVAAISTGGGNTYYRDSVKGRFTISRDNAKSTLYLQMDSLRSDDTATYYCARNPYGNYFDYWGQGVMVTVSS
VL: QFVLSQPNSVSTNLGSTVKLSCKRSTGNIGSNYVHWYQRHEGRSPTTLIYRDDKRPNGVPDRFSGSIDRSSNSALLTINNVQTEDEADYFCQSYSGGMYLFGGGTKLTVL
B12: 84-1111F (antibody, IgG2b, V domains shown)
VH: B11 VH with Q82K
VL: B11 VL with L48M, K106T

These binders were tested against T1, human SPNS2 (human, UniProt Q8IVW8 1-549) (assay: Cell ELISA).
T1 construct: S1P transporter; in Cell ELISA and S1P assays on Flp-in 293 cells that also express human SphK1; also called Spinster homolog 2; native type
T1 sequence: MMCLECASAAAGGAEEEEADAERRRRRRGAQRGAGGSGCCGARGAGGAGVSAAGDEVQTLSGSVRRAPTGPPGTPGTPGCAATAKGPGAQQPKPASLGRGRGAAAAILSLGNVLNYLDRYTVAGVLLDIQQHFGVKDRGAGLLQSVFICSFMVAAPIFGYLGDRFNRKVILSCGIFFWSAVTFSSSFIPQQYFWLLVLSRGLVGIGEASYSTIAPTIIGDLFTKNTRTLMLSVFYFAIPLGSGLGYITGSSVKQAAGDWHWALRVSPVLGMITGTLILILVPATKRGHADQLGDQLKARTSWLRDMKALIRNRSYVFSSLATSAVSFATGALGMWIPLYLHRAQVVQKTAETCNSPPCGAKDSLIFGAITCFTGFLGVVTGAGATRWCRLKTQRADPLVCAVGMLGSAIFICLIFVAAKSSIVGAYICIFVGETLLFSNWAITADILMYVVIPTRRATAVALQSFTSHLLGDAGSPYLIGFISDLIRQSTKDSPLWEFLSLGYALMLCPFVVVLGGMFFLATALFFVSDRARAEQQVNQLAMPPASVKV
Protocol: (§1) Human and mouse SPNS2 and human SphK1 double stable expression Flp-in 293 cells were added to a poly D lysine coat 96-well plate (Corning, 356461) in a density of 1×10⁵ cells/well and was cultivated overnight, and then the culture medium was removed. An anti-SPNS2 antibody solution was adjusted into 20 μg/mL using 0.2% FBS/3% BSA/PBS, and 0.2% FBS/3% BSA/PBS (60 μL) was added to the antibody diluted solution (20 μL) to prepare seven-step diluted solutions by four fold serial dilution. Each diluted solution of the anti-SPNS2 antibody was added in a volume of 30 μL/well, and reacted for about one hour at room temperature. The antibody solution was removed, and the residue was washed with PBS containing 0.05% Tween 20 (PBS-T) two times, and fixed for about ten minutes at room temperature using 10% buffered formalin (Mildform (Trade mark) 10NM, Wako). After washing with PBS-T one time, a 5000-fold diluted solution of anti-rat IgG antibody HRP conjugate (Southern Biotech, 3030-05) in 0.2% FBS/3% BSA/PBS was added to each well (30 μL), and reacted for about one hour at room temperature. After washing with PBS-T four times, a substrate (TMB; 3, 3′, 5, 5′-tetramethylbenzidin) was added to each well (100 μL) to initiate the reaction. After 20 minutes, 2N sulfuric acid was added to each well (100 μL), and absorbance at 450 nm and 550 nm was measured. […] Each antibody bound to human SPNS2 and mouse SPNS2.

Binder | pEC50 | Emax
B1 | 7.83 pEC50 (M) | 
B2 | 8.15 pEC50 (M) | 1.82 absorbance
B3 | 8.59 pEC50 (M) | 1.72 absorbance
B4 | 7.97 pEC50 (M) | 2.03 absorbance
B5 | 8.36 pEC50 (M) | 1.7 absorbance
B6 | 8.47 pEC50 (M) | 1.83 absorbance
B7 | 8.56 pEC50 (M) | 1.64 absorbance
B8 | 8.2 pEC50 (M) | 1.35 absorbance
B9 | 7.87 pEC50 (M) | 1.62 absorbance
B10 | 8.32 pEC50 (M) | 1.6 absorbance
B11 | 8.07 pEC50 (M) | 1.83 absorbance
B12 | 8.75 pEC50 (M) | 1.68 absorbance

What follows are binders tested against T2, mouse SPNS2 (mouse, UniProt Q91VM4 1-549) (assay: Cell ELISA).
T2 construct: on Flp-in 293 cells that also express human SphK1
T2 sequence: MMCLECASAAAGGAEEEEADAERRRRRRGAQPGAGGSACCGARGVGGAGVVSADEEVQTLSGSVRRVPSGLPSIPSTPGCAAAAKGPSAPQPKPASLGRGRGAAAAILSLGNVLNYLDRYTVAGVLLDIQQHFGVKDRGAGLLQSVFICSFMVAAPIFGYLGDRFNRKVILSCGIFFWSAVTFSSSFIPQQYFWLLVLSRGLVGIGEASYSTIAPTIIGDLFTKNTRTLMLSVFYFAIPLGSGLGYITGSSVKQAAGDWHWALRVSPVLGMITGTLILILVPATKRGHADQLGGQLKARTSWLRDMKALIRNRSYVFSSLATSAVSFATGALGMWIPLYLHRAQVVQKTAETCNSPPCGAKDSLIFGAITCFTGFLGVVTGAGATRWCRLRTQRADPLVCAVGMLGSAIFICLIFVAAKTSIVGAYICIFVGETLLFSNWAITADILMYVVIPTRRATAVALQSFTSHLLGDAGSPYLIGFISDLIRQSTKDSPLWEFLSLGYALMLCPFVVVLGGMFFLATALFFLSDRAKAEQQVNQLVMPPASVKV
Protocol: as §1

Binder | pEC50 | Emax
B1 | 7.83 pEC50 (M) | 
B2 | 7.75 pEC50 (M) | 1.9 absorbance
B3 | 8.37 pEC50 (M) | 1.61 absorbance
B4 | 7.72 pEC50 (M) | 1.85 absorbance
B5 | 8.15 pEC50 (M) | 1.54 absorbance
B6 | 8.32 pEC50 (M) | 1.61 absorbance
B7 | 8.29 pEC50 (M) | 1.61 absorbance
B8 | 8.01 pEC50 (M) | 1.29 absorbance
B9 | 7.82 pEC50 (M) | 1.43 absorbance
B10 | 8.17 pEC50 (M) | 1.59 absorbance
B11 | 7.83 pEC50 (M) | 1.88 absorbance
B12 | 8.65 pEC50 (M) | 1.55 absorbance

Each binder was assayed against T1, human SPNS2 (assay: cell-based or functional assay).

Binder | pIC50, S1P transport inhibition (S1PR3 Ca2+ FLIPR bioassay)
B2 | 7.2 pIC50 (M)
B3 | 7.6 pIC50 (M)
B4 | 7.2 pIC50 (M)
B5 | 7.2 pIC50 (M)
B6 | 7.5 pIC50 (M)
B7 | 7.6 pIC50 (M)
B8 | 7.3 pIC50 (M)
B9 | 7.1 pIC50 (M)
B10 | 7.6 pIC50 (M)
B11 | 7.4 pIC50 (M)
B12 | 7.7 pIC50 (M)

These binders were tested against T2, mouse SPNS2 (assay: cell-based or functional assay).

Binder | pIC50, S1P transport inhibition (S1PR3 Ca2+ FLIPR bioassay)
B2 | 7.6 pIC50 (M)
B3 | 7.9 pIC50 (M)
B4 | 7.6 pIC50 (M)
B5 | 7.6 pIC50 (M)
B6 | 7.8 pIC50 (M)
B7 | 7.9 pIC50 (M)
B8 | 7.8 pIC50 (M)
B9 | 7.6 pIC50 (M)
B10 | 8 pIC50 (M)
B11 | 7.6 pIC50 (M)
B12 | 8.3 pIC50 (M)

Molecular target: T1, human SPNS2
Test: cell-based or functional assay
Remark: another data set of the same source

Binder | pIC50, S1P transport inhibition (LC-MS/MS of S1P)
B2 | 7.6 pIC50 (M)
B3 | 7.9 pIC50 (M)
B4 | 7.6 pIC50 (M)
B5 | 7.4 pIC50 (M)
B6 | 7.7 pIC50 (M)
B7 | 7.6 pIC50 (M)
B8 | 7.7 pIC50 (M)
B9 | 7.3 pIC50 (M)
B10 | 7.9 pIC50 (M)
B11 | 7.5 pIC50 (M)
B12 | 8.1 pIC50 (M)

Molecular target: T2, mouse SPNS2
Test: cell-based or functional assay
Remark: another data set of the same source

Binder | pIC50, S1P transport inhibition (LC-MS/MS of S1P)
B2 | 7.8 pIC50 (M)
B3 | 8.1 pIC50 (M)
B4 | 7.8 pIC50 (M)
B5 | 7.8 pIC50 (M)
B6 | 8 pIC50 (M)
B7 | 8.2 pIC50 (M)
B8 | 7.8 pIC50 (M)
B9 | 7.6 pIC50 (M)
B10 | 8.1 pIC50 (M)
B11 | 7.7 pIC50 (M)
B12 | 8.3 pIC50 (M)

— US20210147523A1 (TEIJIN PHARMA, published 2021)
